Results: article PMC7939390 (The Journal of Biological Chemistry, 2020)
No end group written: not given here. *: point of attachment. FITC = O=C1OC2(c3ccc(O)cc3Oc3cc(O)ccc32)c2ccc(NC(=S)*)cc21

Legend:
PBP1b R141A/R397A = target: T1, PBP1b R141A/R397A (E. coli, UniProt P02919 1-844, R141A | R397A); assay: cell-based or functional assay
T1 sequence (looked up): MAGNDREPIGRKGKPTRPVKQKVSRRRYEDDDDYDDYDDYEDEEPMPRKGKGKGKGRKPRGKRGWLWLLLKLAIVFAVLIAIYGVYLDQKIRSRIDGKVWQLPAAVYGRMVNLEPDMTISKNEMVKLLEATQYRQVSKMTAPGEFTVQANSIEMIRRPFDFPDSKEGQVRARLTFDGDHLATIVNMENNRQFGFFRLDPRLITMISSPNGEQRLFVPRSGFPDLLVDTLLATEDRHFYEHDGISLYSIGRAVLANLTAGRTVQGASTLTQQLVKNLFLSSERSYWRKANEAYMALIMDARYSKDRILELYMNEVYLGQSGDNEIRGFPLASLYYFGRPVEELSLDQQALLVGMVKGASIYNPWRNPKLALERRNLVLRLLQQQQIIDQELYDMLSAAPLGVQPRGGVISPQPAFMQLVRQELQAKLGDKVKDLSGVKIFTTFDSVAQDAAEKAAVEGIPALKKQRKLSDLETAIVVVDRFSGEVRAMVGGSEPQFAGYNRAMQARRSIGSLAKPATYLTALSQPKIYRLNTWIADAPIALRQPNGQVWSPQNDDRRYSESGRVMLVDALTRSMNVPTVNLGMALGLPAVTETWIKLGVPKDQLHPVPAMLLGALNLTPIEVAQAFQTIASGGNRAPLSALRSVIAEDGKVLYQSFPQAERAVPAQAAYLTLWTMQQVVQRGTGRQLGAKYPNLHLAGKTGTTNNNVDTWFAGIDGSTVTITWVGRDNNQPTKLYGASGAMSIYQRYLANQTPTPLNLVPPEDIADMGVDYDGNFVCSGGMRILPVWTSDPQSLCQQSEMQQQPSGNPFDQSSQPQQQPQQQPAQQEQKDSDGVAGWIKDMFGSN

[1] = target: T2, PBP1bγ (penicillin-binding protein 1b, gamma form) (E. coli, UniProt P02919-2 1-799); assay: fluorescence polarisation; fluorescence anisotropy; FITC-Lys69–Gln93 probe at 100 nM, serial dilutions of the proteins in their specific buffer, 384-well plates, 30 min at 25 °C; conditions: both partners purified
T2 construct: also called 1b WT
T2 sequence (looked up): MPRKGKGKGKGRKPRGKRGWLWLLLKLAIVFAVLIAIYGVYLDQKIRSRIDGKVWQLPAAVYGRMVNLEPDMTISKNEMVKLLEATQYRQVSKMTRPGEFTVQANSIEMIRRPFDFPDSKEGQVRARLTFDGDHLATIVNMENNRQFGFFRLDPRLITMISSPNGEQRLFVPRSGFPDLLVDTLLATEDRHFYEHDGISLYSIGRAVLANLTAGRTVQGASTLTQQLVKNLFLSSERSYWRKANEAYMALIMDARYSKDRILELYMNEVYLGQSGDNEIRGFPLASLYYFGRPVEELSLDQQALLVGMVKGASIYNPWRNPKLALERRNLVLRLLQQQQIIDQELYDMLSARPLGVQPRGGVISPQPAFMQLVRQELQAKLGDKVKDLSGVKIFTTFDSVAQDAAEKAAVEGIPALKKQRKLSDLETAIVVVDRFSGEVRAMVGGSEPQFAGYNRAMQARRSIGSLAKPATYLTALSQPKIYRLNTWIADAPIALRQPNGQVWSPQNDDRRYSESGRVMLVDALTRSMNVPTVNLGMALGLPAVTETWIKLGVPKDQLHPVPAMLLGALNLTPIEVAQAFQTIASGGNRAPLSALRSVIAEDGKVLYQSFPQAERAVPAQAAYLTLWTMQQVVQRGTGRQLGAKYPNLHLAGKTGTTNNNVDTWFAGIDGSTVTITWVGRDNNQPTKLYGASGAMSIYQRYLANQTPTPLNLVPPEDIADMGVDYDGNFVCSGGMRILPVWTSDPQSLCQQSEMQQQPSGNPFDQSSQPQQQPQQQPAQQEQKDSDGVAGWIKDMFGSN

PBP1b (positions 58–804) = target: T3, PBP1b (positions 58–804) (E. coli, UniProt P02919 58-804); assay: crystal structure; co-crystallization of PBP1b (Lys58–Ser804) with moenomycin A (1:1) and EFtsN peptide (3:1), hanging drop, 20 °C; 2.4 Å; conditions: both partners purified
T3 construct: Crystallized with moenomycin A (1:1) and the EFtsN peptide (3:1); also called PBP1b (Lys58–Ser804); source: purified (details in the supporting information)
T3 sequence (looked up): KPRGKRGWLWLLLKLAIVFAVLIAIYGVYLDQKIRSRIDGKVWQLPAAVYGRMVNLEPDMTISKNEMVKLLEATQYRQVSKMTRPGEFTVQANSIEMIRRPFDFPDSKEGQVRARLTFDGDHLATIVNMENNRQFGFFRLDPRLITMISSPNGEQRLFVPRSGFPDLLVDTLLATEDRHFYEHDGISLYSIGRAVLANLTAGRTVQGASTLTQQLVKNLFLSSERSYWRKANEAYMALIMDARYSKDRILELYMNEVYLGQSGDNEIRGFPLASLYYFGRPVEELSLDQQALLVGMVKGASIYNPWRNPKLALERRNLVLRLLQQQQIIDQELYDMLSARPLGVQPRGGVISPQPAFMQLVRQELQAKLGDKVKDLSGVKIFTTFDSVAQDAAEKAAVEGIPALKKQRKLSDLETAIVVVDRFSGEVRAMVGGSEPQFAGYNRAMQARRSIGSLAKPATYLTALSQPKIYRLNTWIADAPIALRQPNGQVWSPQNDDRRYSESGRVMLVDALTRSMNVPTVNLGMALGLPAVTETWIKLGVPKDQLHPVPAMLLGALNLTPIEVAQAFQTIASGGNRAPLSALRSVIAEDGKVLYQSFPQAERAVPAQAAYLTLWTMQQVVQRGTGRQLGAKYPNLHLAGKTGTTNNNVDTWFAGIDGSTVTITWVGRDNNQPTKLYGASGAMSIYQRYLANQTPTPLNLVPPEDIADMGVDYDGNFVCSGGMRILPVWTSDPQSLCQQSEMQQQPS

PBP1b^R141A/R397A = assay type: biochemical, Escherichia coli; conditions: versus PBP1b^WT; GTase, dansyl-lipid II; mean ± s.d. of three experiments
PBP1b = target: T4, PBP1b (Escherichia coli, UniProt P02919); conditions: cited from earlier work
T4 sequence (P02919 1-799 isoform P02919-2): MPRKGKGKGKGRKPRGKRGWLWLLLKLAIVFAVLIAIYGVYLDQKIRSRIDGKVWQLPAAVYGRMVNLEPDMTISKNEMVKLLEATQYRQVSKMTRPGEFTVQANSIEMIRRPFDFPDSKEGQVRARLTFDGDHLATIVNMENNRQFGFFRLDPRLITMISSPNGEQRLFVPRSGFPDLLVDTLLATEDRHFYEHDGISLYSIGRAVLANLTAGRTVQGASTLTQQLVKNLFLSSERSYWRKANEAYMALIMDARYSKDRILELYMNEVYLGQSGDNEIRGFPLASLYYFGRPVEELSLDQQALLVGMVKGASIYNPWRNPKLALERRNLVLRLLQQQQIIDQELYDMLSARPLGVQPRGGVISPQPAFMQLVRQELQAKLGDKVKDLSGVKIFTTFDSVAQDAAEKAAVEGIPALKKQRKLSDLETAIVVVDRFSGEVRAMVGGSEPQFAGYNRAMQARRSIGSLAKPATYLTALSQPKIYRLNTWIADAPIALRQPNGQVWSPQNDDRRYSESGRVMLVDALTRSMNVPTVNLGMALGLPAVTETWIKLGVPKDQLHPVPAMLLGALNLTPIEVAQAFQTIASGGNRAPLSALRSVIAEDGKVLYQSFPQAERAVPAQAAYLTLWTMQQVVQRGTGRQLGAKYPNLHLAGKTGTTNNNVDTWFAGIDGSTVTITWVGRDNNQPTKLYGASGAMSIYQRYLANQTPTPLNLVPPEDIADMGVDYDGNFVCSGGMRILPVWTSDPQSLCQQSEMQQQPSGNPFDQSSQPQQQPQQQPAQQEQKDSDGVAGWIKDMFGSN
Text: Bacteria generally have at least one bifunctional (GTase/TPase) PBP of class A and one monofunctional (TPase only) PBP of class B ([2], [13]). E. coli contains three aPBPs: PBP1a, 1b, and 1c, and two bPBPs: PBP2 and PBP3, the latter being involved in cell elongation and division, respectively ([14]). PBP1a and PBP1b are major PG synthases and at least one of them is required for cell viability ([15]).

[2] = tested on: E. coli EJ801 (ΔponB-ponA^ts); assay: microscopy of EJ801 cells, cell morphology and length; assay type: cell-based, Escherichia coli; set-up: cell length L: unit not given here; conditions: EJ801 after 1 h at 42 °C, n = 250, phase contrast, ImageJ/ObjectJ
Protocol: Samples were taken from the complementation cultures (42 °C) at different time (1-h intervals), and the cells were fixed as described ([63]). Photographs were taken with a cooled AxioCam MRm (Zeiss) mounted on a Zeiss Axio Imager. Z1 microscope, and the images were acquired in phase-contrast mode using the AxioVision Rel. 4.5 (Zeiss) software. The cell morphologies analysis were determined using ImageJ software (RRID:SCR_003070) running under plugin ObjectJ (RRID:SCR_019190).

B1: HisFtsN (full-length FtsN) (natural protein, E. coli, UniProt P29131 1-319, looked up)
chain: MAQRDYVRRSQPAPSRRKKSTSRKKQRNLPAVSPAMVAIAAAVLVTFIGGLYFITHHKKEESETLQSQKVTGNGLPPKPEERWRYIKELESRQPGVRAPTEPSAGGEVKTPEQLTPEQRQLLEQMQADMRQQPTQLVEVPWNEQTPEQRQQTLQRQRQAQQLAEQQRLAQQSRTTEQSWQQQTRTSQAAPVQAQPRQSKPASSQQPYQDLLQTPAHTTAQSKPQQAAPVARAADAPKPTAEKKDERRWMVQCGSFRGAEQAETVRAQLAFEGFDSKITTNNGWNRVVIGPVKGKENADSTLNRLKMAGHTNCIRLAAGG
fold decrease in activation of the GTase activity of PBP1b R141A/R397A by FtsN against the WT protein, continuous fluorescence assay (PBP1b R141A/R397A): 2 fold

B2: FITC-labeled peptide (FITC-Lys69–Gln93) of FtsN (peptide)
peptide: {FITC}-KVTGNGLPPKPEERWRYIKELESRQ
notes: also called F-EFtsN; fluorescent EFtsN peptide; source: synthetic peptide, bought: Synpeptide (Shanghai, China)
Kd [1]: 8.1 ± 1.7 µM

B3: EFtsN peptide (Leu75–Gln93), unlabeled (peptide)
peptide: LPPKPEERWRYIKELESRQ
notes: FtsN, E. coli, residues Leu75–Gln93 (essential region around helix H2); also called essential region of FtsN; synthetic peptide Leu75–Gln93; source: synthetic peptide, bought: Synpeptide (Shanghai, China)
binding result (PBP1b (positions 58–804)): binds

B4: LpoB: outer-membrane lipoprotein LpoB (protein, UniProt P0AB38 20-213, looked up)
Penicillin-binding protein …: CVGQREPAPVEEVKPAPEQPAEPQQPVPTVPSVPTIPQQPGPIEHEDQTAPPAPHIRHYDWNGAMQPMVSKMLGADGVTAGSVLLVDSVNNRTNGSLNAAEATETLRNALANNGKFTLVSAQQLSMAKQQLGLSPQDSLGTRSKAIGIARNVGAHYVLYSSASGNVNAPTLQMQLMLVQTGEIIWSGKGAVSQQ
activation of PBP1b^R141A/R397A by LpoB (PBP1b^R141A/R397A): remained unchanged
catalytic activities of PBP1b (literature) (PBP1b): stimulates both of its catalytic activities

B5: PBP1b^WT: PBP1b wild-type (protein)
chain: MPRKGKGKGKGRKPRGKRGWLWLLLKLAIVFAVLIAIYGVYLDQKIRSRIDGKVWQLPAAVYGRMVNLEPDMTISKNEMVKLLEATQYRQVSKMTRPGEFTVQANSIEMIRRPFDFPDSKEGQVRARLTFDGDHLATIVNMENNRQFGFFRLDPRLITMISSPNGEQRLFVPRSGFPDLLVDTLLATEDRHFYEHDGISLYSIGRAVLANLTAGRTVQGASTLTQQLVKNLFLSSERSYWRKANEAYMALIMDARYSKDRILELYMNEVYLGQSGDNEIRGFPLASLYYFGRPVEELSLDQQALLVGMVKGASIYNPWRNPKLALERRNLVLRLLQQQQIIDQELYDMLSARPLGVQPRGGVISPQPAFMQLVRQELQAKLGDKVKDLSGVKIFTTFDSVAQDAAEKAAVEGIPALKKQRKLSDLETAIVVVDRFSGEVRAMVGGSEPQFAGYNRAMQARRSIGSLAKPATYLTALSQPKIYRLNTWIADAPIALRQPNGQVWSPQNDDRRYSESGRVMLVDALTRSMNVPTVNLGMALGLPAVTETWIKLGVPKDQLHPVPAMLLGALNLTPIEVAQAFQTIASGGNRAPLSALRSVIAEDGKVLYQSFPQAERAVPAQAAYLTLWTMQQVVQRGTGRQLGAKYPNLHLAGKTGTTNNNVDTWFAGIDGSTVTITWVGRDNNQPTKLYGASGAMSIYQRYLANQTPTPLNLVPPEDIADMGVDYDGNFVCSGGMRILPVWTSDPQSLCQQSEMQQQPSGNPFDQSSQPQQQPQQQPAQQEQKDSDGVAGWIKDMFGSN
cell length L [2]: 2.17 ± 0.46
